Where two headings read alike, the source gives them in different places.
Columns and labels:
[1] = biological target: T1, SARS-CoV-2-S1-his protein (SARS-CoV-2, UniProt P0DTC2 16-685); experiment: ELISA, S1 protein coated at varied concentration, antibody at 1 ug/mL
T1 construct: domain: S1

SARS-CoV-2 ECD protein [2] = biological target: T2, SARS-CoV-2 ECD protein (SARS-CoV-2, UniProt P0DTC2 14-1213); experiment: ELISA, ECD protein coated at varied concentration, antibody at 1 ug/mL
T2 construct: extracellular domain

[3] = biological target: T1, SARS-CoV-2-S1-his protein
SARS-CoV-2 RBD protein [4] = biological target: T3, SARS-CoV-2 RBD protein (SARS-CoV-2, UniProt P0DTC2 319-541)
[5] = biological target: T4, SARS-CoV-2 S full-length protein on pseudovirus (SARS-CoV-2, UniProt P0DTC2 14-1273); experiment: cell-based or functional assay
[6] = biological target: T5, SARS-CoV-2 S1 protein on HF-nCoV-SPIKE-8D3 cells (SARS-CoV-2, UniProt P0DTC2 14-1273); experiment: flow cytometry on HF-nCoV-SPIKE-8D3 cells, titrated antibody
T5 construct: whole, on cells

[7] = biological target: T6, CD32a-AVI-His(R131)+BirA protein (UniProt P12318 36-218); experiment: ELISA, biotinylated CD32a captured on avidin, titrated antibody
T6 sequence: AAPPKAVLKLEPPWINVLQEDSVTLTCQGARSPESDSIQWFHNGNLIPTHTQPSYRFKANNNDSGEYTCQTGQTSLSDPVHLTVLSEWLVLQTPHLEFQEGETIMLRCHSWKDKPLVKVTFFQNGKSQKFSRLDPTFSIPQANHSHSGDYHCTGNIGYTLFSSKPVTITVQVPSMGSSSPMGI

SARS-CoV-2 RBD protein [8] = biological target: T3, SARS-CoV-2 RBD protein; experiment: ELISA, RBD protein coated at varied concentration, antibody at 1 ug/mL
SARS-CoV-2 RBD protein [9] = biological target: T3, SARS-CoV-2 RBD protein; experiment: BLI (OctetRED96e), biotinylated RBD on SA sensor, antibody in solution
[10] = biological target: T7, CD32b-AVI-HIS+BirA protein (UniProt P31994 43-217); experiment: ELISA, biotinylated CD32b captured on avidin, titrated antibody
T7 sequence: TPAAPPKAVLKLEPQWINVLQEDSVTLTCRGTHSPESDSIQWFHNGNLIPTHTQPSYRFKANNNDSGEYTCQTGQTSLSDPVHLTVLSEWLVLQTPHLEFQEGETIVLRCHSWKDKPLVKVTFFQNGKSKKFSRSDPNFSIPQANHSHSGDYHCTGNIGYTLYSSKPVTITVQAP

[11] = biological target: T1, SARS-CoV-2-S1-his protein; experiment: BLI (OctetRED96e), biotinylated S1 on SA sensor, antibody in solution
[12] = biological target: T1, SARS-CoV-2-S1-his protein; experiment: ELISA, S1 protein coated at varied concentration, antibody at 1 ug/mL; remark: listed apart in the source
[13] = biological target: CD16a-AVI-His(V158)+BirA protein (UniProt P08637 17-208); experiment: ELISA, biotinylated CD16a captured on avidin, titrated antibody
Chain of CD16a-AVI-His(V158)+BirA protein (P08637 17-208 F176V limits assumed): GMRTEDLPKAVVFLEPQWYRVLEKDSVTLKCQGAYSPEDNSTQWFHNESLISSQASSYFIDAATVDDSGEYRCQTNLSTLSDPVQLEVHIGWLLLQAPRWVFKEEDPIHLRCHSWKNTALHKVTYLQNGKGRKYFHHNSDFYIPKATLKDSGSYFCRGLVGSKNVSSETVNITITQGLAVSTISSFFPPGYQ

[14] = biological target: T1, SARS-CoV-2-S1-his protein; remark: listed apart in the source
SARS-CoV-2 ECD protein [15] = biological target: T2, SARS-CoV-2 ECD protein; experiment: ELISA, ECD protein coated at varied concentration, antibody at 1 ug/mL; remark: listed apart in the source
[16] = biological target: T4, SARS-CoV-2 S full-length protein on …; experiment: cell-based or functional assay; remark: listed apart in the source
[17] = biological target: CD64-AVI-His+BirA protein (UniProt P12314 16-288); experiment: ELISA, biotinylated CD64 captured on avidin, titrated antibody
Chain of CD64-AVI-His+BirA protein (P12314 16-288 limits assumed): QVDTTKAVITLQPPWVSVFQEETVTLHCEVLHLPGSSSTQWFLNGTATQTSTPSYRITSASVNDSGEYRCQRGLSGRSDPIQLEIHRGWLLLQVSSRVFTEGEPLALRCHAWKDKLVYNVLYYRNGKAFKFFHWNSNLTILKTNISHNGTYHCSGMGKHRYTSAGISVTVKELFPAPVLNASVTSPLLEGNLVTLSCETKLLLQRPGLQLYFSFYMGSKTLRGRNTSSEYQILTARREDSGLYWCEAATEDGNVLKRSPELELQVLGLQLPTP

B1: human-mouse chimeric antibody CoV2-mhB27 (antibody, V domains shown)
VH: EVKLVESGGGLVKPGGSLKLSCAASGFTFSNYGMSWVRQSPEKRLEWVAEISSGGSYTYYPDTVTGRFTISRDNAKNTLYLEMSSLRSEDTAMYYCARFRYDGGGGTVDYWGQGTSVTVSS
VL: not shown
notes: also called murine antibody CoV2-mhB27
EC50 [1]: 0.116 µg/mL | EC50 (SARS-CoV-2 ECD protein [2]): 0.307 µg/mL | EC50 [3]: 0.024 µg/mL | EC50 (SARS-CoV-2 RBD protein [4]): 0.044 µg/mL | neutralization IC50, SARS-CoV-2 pseudovirus on 293FT-ACE2 cells (luciferase) [5]: 0.0087 µg/mL | EC50 [6]: 2.77 µg/mL

B2: humanized antibody CoV2-HB27 (antibody)
heavy: not shown
light: EIVLTQSPATLSLSPGERATLSCRASESVDNYGISFMNWFQQKPGQAPRLLIYAASNQGSGVPARFSGSGSGTDFSLTISSLEPEDFAVYFCQQSKEVPRTFGQGTKVEIKRTVAAPSVFIFPPSDEQLKSGTASVVCLLNNFYPREAKVQWKVDNALQSGNSQESVTEQDSKDSTYSLSSTLTLSKADYEKHKVYACEVTHQGLSSPVTKSFNRGEC
notes: also called IgG1 subtype CoV2-HB27 antibody; CoV2-HB27-IgG1
binding result [7]: binds | EC50 (SARS-CoV-2 RBD protein [8]): 0.0222 µg/mL | Kd (SARS-CoV-2 RBD protein [9]): 0.039 nM | koff (SARS-CoV-2 RBD protein [9]): 1.4e-05 s⁻¹ | kon (SARS-CoV-2 RBD protein [9]): 370000 M⁻¹ s⁻¹ | binding result [10]: binds | Kd [11]: 0.37 nM | koff [11]: 0.00039 s⁻¹ | kon [11]: 1.1e+06 M⁻¹ s⁻¹ | EC50 [12]: 0.183 µg/mL | binding result [13]: binds | EC50 [14]: 0.179 µg/mL | EC50 (SARS-CoV-2 ECD protein [15]): 0.972 µg/mL | neutralization IC50, SARS-CoV-2 pseudovirus on 293FT-ACE2 cells (luciferase) [16]: 0.0059 µg/mL

B3: CoV2-HB27-Ae0-IgG1 (antibody)
heavy: not shown
light: B2 light
notes: also called Ae0-IgG1 form antibody; defucosylated IgG1 subtype CoV2-HB27
binding result [7]: binds | binding result [10]: binds | binding result [13]: binds

B4: CoV2-HB27-Fd6-IgG1 (antibody)
heavy: not shown
light: B2 light
notes: also called Fd6-IgG1 form antibody; reduced Fc function IgG1 subtype humanized antibody
binding result [7]: no binding | binding result [10]: no binding | binding result [17]: binds

Reference: WO2021218879A1 (dated 2021)
